For assay [1], the target named is oxygen-cleaved pyruvate formate-lyase mimic (cPFL, residues 1-733) (E. coli).
Assay [2] has the same target. The source holds these as a separate data set.
Assay [3] addresses truncated pyruvate formate-lyase (tPFL, residues 1-695) (E. coli).
Assay [4] deals with oxygen-cleaved pyruvate formate-lyase mimic (cPFL, residues 1-733) (E. coli). Nature of the assay: ITC; YfiD variant in the syringe titrated into the PFL variant in the cell, matched buffer; MicroCal iTC200, 25 °C, 20 injections of 2.0 μl. For orientation: In ITC the heat of successive injections is recorded.

Sequence of oxygen-cleaved pyruvate formate-lyase mimic (cPFL, residues 1-733) (E. coli) (P09373 2-734 limits assumed): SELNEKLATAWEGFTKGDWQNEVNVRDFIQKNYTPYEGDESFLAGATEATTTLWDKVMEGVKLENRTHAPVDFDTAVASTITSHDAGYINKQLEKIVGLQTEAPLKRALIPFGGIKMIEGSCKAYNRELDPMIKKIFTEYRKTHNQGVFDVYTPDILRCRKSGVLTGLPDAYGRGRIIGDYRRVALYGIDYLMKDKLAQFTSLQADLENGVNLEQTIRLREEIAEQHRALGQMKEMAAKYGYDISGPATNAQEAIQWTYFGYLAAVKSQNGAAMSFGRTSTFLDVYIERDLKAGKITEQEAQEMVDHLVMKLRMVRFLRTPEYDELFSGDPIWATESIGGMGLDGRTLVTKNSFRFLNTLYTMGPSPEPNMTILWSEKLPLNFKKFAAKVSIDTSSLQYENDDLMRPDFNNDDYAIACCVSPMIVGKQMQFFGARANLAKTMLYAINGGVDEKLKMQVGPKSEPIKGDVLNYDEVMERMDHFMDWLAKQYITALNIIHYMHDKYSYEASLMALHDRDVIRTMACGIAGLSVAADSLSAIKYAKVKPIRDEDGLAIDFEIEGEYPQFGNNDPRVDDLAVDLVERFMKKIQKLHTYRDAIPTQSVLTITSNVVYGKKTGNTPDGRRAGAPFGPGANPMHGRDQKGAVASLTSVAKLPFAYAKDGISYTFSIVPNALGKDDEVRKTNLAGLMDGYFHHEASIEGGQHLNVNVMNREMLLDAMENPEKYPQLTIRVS
Sequence of truncated pyruvate formate-lyase (tPFL, residues 1-695) (E. coli) (P09373 1-695): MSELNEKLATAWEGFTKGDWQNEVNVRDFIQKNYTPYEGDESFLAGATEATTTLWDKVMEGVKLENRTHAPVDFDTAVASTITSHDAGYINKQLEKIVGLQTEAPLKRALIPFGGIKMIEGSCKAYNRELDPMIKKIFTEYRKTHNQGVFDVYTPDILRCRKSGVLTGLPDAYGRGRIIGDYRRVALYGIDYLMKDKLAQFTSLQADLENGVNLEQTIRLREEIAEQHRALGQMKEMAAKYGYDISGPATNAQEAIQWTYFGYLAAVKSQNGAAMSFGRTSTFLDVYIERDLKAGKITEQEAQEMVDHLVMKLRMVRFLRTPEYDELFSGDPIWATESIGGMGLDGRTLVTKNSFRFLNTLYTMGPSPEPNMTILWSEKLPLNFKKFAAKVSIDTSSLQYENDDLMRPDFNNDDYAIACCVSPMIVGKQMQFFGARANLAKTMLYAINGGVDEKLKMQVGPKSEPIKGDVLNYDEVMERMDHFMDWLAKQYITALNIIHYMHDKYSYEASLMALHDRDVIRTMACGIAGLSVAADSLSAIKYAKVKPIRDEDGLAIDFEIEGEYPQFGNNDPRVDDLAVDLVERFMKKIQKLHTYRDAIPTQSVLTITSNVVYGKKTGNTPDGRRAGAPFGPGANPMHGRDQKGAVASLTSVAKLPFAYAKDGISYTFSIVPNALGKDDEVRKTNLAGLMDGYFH

Take “truncated YfiD (truncYfiD, residues 61-127) (from UniProt P68066 61-127) (domain or fragment)”: in assay [1], the glycyl radical installed by PFL-AE on the 1:1 cPFL:truncYfiD mixture (200 μM each), quantified by EPR stood at 4.1 µM. Also, the apparent kcat of acetyl-CoA production by the activated cPFL:truncYfiD complex (coupled assay, 21 °C, per glycyl radical) in assay [2] was found to be 186 s⁻¹. Besides, the glycyl radical installed by PFL-AE on the 1:1 tPFL:truncYfiD mixture (200 μM each), quantified by EPR in assay [3] came to 2.7 µM.

As a reminder, the Kd is a measure of binding affinity in units of concentration. “YfiD (spare part protein, autonomous glycyl radical cofactor) (from UniProt P68066 1-127) (natural protein)” displayed a dissociation constant (Kd) in assay [4] of 14 µM. The glycyl radical installed by PFL-AE on the 1:1 cPFL:YfiD mixture (200 μM each), quantified by EPR; no detectable radical for the individual components in assay [1] was 15.9 µM. Moreover, in assay [3], the glycyl radical installed by PFL-AE on the 1:1 tPFL:YfiD mixture (200 μM each), quantified by EPR is 0.5 µM.
